The term stoichiometry N denotes a count of units in the complex or per binding partner. The Kd is a measure of binding affinity in units of concentration. Lower therefore signals a tighter complex.

This note sets out measurements from PMC8329863 (Acta Crystallographica. Section D, Structural Biology, 2021).

In assay [1] the target is T1, VanRSc (Streptomyces coelicolor, UniProt Q8CJW1).
T1 construct: gene SCO3590
The settings on record: BeF3- formed from BeSO4 and NaF; Mg2+ present; phosphomimetic bound to Asp51 in the receiver domain; crystals at pH 7, room temperature.

The target in assay [2] is full-length VanR from Streptomyces coelicolor, activated state (beryllium fluoride bound at Asp51) (Streptomyces coelicolor). As to the kind of experiment: crystal structure; activated VanRSc co-crystallized with beryllium fluoride, microbatch under oil, 2.5 M NaCl, 0.1 M Tris pH 7, 0.2 M MgCl2, room temperature; monomer in the asymmetric unit, dimer by crystal symmetry.
Assay [3] deals with T2, full-length VanR from Streptomyces coelicolor, inactive (unphosphorylated) state (Streptomyces coelicolor).
T2 chain: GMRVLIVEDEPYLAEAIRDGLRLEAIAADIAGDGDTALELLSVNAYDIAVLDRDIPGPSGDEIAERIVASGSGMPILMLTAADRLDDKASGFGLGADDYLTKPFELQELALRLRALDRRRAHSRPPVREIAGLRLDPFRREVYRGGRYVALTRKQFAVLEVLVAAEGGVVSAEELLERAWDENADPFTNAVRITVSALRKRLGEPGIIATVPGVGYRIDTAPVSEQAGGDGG
The assay is described as follows: AUC; sedimentation equilibrium, 4°C, 18 000, 20 000 and 22 000 rev/min, without beryllium fluoride; global fit, monomer-dimer model (dimer to monomers). The conditions noted are these: both partners purified.

In assay [4] the target is T2, full-length VanR from Streptomyces …. The assay is described as follows: AUC; sedimentation velocity, 20°C, 50 mM Tris pH 7.5, 50 mM NaCl, 10 mM MgCl2, without beryllium fluoride; 36.5 µM monomer; monomer-dimer model (dimer to monomers). The conditions noted are these: both partners purified.

Some results are limits rather than exact numbers.

With `[F][Be-]([F])[F]` [beryllium fluoride], the “X-ray crystallography, 2.03 A co-crystal structure” value in assay [1] is given as “The Be atom is bound to one of the carboxylate O atoms of Asp51”.

For “full-length VanR from Streptomyces coelicolor, activated state (beryllium fluoride bound at Asp51) (natural protein)”, the stoichiometry N in assay [2] amounted to 2.

B1: full-length VanR from Streptomyces coelicolor, inactive (unphosphorylated) state (natural protein)
chain: GMRVLIVEDEPYLAEAIRDGLRLEAIAADIAGDGDTALELLSVNAYDIAVLDRDIPGPSGDEIAERIVASGSGMPILMLTAADRLDDKASGFGLGADDYLTKPFELQELALRLRALDRRRAHSRPPVREIAGLRLDPFRREVYRGGRYVALTRKQFAVLEVLVAAEGGVVSAEELLERAWDENADPFTNAVRITVSALRKRLGEPGIIATVPGVGYRIDTAPVSEQAGGDGG
modifications: unphosphorylated at Asp51 (paper numbering; entity position 52), no beryllium fluoride; Mg2+ present (10 mM MgCl2 in AUC). Wild-type residues 1-231 plus the N-terminal Gly left after SUMO cleavage. …
As to B1, the Kd was 37 µM in assay [3] and above 1000 µM in assay [4].
